Experimental data: US10344077

T1: Jo-1 (UniProt P12081)
T1 sequence (looked up): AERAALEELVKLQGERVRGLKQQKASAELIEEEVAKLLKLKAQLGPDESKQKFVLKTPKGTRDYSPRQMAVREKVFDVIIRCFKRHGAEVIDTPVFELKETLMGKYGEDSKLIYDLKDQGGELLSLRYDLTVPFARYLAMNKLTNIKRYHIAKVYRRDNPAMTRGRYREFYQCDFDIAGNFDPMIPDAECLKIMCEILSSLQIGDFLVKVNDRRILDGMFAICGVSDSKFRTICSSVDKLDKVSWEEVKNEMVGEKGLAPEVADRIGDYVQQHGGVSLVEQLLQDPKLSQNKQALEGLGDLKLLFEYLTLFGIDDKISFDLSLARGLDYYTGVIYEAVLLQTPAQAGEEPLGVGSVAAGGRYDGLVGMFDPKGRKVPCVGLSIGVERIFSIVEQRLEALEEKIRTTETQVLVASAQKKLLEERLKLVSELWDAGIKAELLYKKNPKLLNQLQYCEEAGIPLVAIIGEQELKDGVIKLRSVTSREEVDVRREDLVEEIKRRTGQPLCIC

T2: Centromere B (UniProt P07199)
T2 sequence (looked up): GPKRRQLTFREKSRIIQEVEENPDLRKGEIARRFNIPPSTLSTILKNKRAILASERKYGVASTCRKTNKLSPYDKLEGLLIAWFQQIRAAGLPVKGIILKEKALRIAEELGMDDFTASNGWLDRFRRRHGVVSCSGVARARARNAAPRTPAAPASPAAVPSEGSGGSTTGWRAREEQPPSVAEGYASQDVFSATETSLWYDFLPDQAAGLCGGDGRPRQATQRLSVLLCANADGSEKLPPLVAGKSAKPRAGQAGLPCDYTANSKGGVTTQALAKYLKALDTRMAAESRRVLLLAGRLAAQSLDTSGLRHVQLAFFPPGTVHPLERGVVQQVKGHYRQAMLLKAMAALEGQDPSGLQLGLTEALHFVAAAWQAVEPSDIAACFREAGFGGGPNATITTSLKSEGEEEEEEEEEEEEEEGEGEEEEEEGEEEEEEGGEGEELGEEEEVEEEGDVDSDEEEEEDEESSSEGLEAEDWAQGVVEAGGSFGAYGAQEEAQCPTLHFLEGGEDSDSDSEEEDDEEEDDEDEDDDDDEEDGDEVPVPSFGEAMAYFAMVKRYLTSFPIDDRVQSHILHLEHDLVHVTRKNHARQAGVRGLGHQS

B1: CH239_4A/293i (antibody, from a related filing, V domains shown)
VH: QVQLVQSGAEVRKPGASVTVSCKASGYTFNNFYVHWVRQAPGQGLECMGWIDPSVGRINYAQKFQGRVTMTRDRSTSTVYMGLSSLRSEDTAIYYCVRDVGTEGSLLHFDHWGQGTLVIVSA
VL: EIVLTQSPATLSVSPGERATLSCRATQSVRSNVAWYQQKPGQAPRLLIYSASTRATGIPARFSGSGSGTEFTLTIASMQSEDFAVYYCLQYDDWWTFGQGTKVEIK
B2: CH236_4A/293i (antibody, from a related filing, V domains shown)
VH: QVQLVQSGAAVKRPGASVTISCRASGYTFTTYYIHWVRQAPGQRLELMGMIDPSRGRTDYAQKFQGRVTMSRDTSTSTLYMELRSLRPDDTALYYCVRNVGTEGSLLHYDYWGQGTLVTVSS
VL: EIVLTQSPATLSVSPGERVTLSCRASQSVRNNLAWYRQKRGQAPRLLIYGASTRATGIPARFSGSGSGTEFTLTISSMQSEDFAVYYCQQYNNWWTFGQGTKVEIK

What was measured:
Sm (Smith antigen) [1] = test: AtheNA, Ab 6.25 ug/ml
SSA [2] = test: AtheNA, Ab 6.25 ug/ml
Histones [3] = test: AtheNA, Ab 6.25 ug/ml
Jo-1 [4] = target: T1, Jo-1; test: AtheNA, Ab 6.25 ug/ml
RNP (ribonucleoprotein) [5] = test: AtheNA, Ab 6.25 ug/ml
Scl-70 [6] = target: Scl-70 (UniProt P11387); test: AtheNA, Ab 6.25 ug/ml
Scl-70, sequence (P11387 2-765 limits assumed): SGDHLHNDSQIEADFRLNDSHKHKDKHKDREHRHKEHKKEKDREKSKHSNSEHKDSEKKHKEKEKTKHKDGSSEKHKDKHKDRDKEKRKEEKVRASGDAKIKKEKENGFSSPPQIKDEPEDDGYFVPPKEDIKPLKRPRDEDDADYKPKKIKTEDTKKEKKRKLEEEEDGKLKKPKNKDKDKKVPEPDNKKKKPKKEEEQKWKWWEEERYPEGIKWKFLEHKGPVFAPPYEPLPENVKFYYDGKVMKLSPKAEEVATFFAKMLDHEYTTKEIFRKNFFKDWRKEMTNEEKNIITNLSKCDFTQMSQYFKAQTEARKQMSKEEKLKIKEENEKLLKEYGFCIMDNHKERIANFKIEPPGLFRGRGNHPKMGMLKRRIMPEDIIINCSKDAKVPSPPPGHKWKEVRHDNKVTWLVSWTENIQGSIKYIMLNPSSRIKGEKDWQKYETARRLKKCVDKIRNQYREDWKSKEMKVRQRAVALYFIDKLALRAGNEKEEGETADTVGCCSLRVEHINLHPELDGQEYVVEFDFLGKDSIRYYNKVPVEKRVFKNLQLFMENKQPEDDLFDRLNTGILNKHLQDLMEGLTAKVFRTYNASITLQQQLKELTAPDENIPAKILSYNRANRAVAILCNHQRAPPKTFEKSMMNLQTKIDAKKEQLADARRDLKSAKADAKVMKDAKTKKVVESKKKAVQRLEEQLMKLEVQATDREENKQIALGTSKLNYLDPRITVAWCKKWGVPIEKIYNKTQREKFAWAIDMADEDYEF

Centromere B [7] = target: T2, Centromere B; test: AtheNA, Ab 6.25 ug/ml
Sm (Smith antigen) [8] = test: AtheNA, Ab 50 ug/ml
SSA [9] = test: AtheNA, Ab 50 ug/ml
Histones [10] = test: AtheNA, Ab 50 ug/ml
Centromere B [11] = target: T2, Centromere B; test: AtheNA, Ab 50 ug/ml
Sm (Smith antigen) [12] = test: AtheNA, Ab 12.5 ug/ml
SSA [13] = test: AtheNA, Ab 12.5 ug/ml
Histones [14] = test: AtheNA, Ab 12.5 ug/ml
Jo-1 [15] = target: T1, Jo-1; test: AtheNA, Ab 12.5 ug/ml
RNP (ribonucleoprotein) [16] = test: AtheNA, Ab 12.5 ug/ml
Scl-70 [17] = target: Scl-70 (UniProt P11387); test: AtheNA, Ab 12.5 ug/ml
Centromere B [18] = target: T2, Centromere B; test: AtheNA, Ab 12.5 ug/ml
AtheNA, Ab 12.5 ug/ml = substrate: T3, SSB (UniProt P05455); test: AtheNA, Ab 12.5 ug/ml
T3 sequence (looked up): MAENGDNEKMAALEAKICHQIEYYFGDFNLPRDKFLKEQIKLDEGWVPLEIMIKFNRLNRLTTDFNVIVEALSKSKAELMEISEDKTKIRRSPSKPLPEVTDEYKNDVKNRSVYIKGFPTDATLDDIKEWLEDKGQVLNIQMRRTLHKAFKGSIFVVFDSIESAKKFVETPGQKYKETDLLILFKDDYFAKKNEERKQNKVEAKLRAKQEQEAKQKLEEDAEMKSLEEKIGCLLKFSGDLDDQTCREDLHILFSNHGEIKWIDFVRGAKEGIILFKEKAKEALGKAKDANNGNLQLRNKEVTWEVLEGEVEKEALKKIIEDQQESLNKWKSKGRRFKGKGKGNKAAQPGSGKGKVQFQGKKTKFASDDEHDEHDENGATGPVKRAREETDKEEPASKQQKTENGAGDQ

AtheNA, Ab 6.25 ug/ml = substrate: T3, ; test: AtheNA, Ab 6.25 ug/ml
Sm (Smith antigen) [19] = test: AtheNA, Ab 25 ug/ml
SSA [20] = test: AtheNA, Ab 25 ug/ml
Histones [21] = test: AtheNA, Ab 25 ug/ml
Jo-1 [22] = target: T1, Jo-1; test: AtheNA, Ab 25 ug/ml
RNP (ribonucleoprotein) [23] = test: AtheNA, Ab 25 ug/ml
Centromere B [24] = target: T2, Centromere B; test: AtheNA, Ab 25 ug/ml
AtheNA, Ab 25 ug/ml = substrate: T3, ; test: AtheNA, Ab 25 ug/ml
Jo-1 [25] = target: T1, Jo-1; test: AtheNA, Ab 50 ug/ml
AtheNA, Ab 50 ug/ml = substrate: T3, ; test: AtheNA, Ab 50 ug/ml
Scl-70 [26] = target: Scl-70 (UniProt P11387); test: AtheNA, Ab 25 ug/ml

| Athena reading (relative luminescence units) (Sm (Smith antigen) [1]) | Athena reading (relative luminescence units) (SSA [2]) | Athena reading (relative luminescence units) (Histones [3]) | Athena reading (relative luminescence units) (Jo-1 [4]) | Athena reading (relative luminescence units) (RNP (ribonucleoprotein) [5]) | Athena reading (relative luminescence units) (Scl-70 [6]) | Athena reading (relative luminescence units) (Centromere B [7]) | Athena reading (relative luminescence units) (Sm (Smith antigen) [8]) | Athena reading (relative luminescence units) (SSA [9]) | Athena reading (relative luminescence units) (Histones [10]) | Athena reading (relative luminescence units) (Centromere B [11]) | Athena reading (relative luminescence units) (Sm (Smith antigen) [12]) | Athena reading (relative luminescence units) (SSA [13]) | Athena reading (relative luminescence units) (Histones [14]) | Athena reading (relative luminescence units) (Jo-1 [15]) | Athena reading (relative luminescence units) (RNP (ribonucleoprotein) [16]) | Athena reading (relative luminescence units) (Scl-70 [17]) | Athena reading (relative luminescence units) (Centromere B [18]) | Athena reading (relative luminescence units) (AtheNA, Ab 12.5 ug/ml) | Athena reading (relative luminescence units) (AtheNA, Ab 6.25 ug/ml) | further results | Binder |
| --- | --- | --- | --- | --- | --- | --- | --- | --- | --- | --- | --- | --- | --- | --- | --- | --- | --- | --- | --- | --- | --- |
| 285 | 178 | 266 | 8 | 78 | 49 | 260 | 250 | 289 | 228 | 173 | 277 | 277 | 263 | 8 | 85 | 48 | 216 | 6 | 5 | Athena reading (relative luminescence units) (Sm (Smith antigen) [19]): 237; Athena reading (relative luminescence units) (SSA [20]): 306; Athena reading (relative luminescence units) (Histones [21]): 253; Athena reading (relative luminescence units) (Jo-1 [22]): 11; Athena reading (relative luminescence units) (RNP (ribonucleoprotein) [23]): 96; Athena reading (relative luminescence units) (Centromere B [24]): 199; Athena reading (relative luminescence units) (AtheNA, Ab 25 ug/ml): 8 | B1 |
| 184 | 44 | 154 | 7 | 40 | 31 | 208 | 128 | 177 | 138 | 84 | 258 | 185 | 234 | 19 | 78 | 50 | 233 | 63 | 15 | Athena reading (relative luminescence units) (Jo-1 [25]): 145; Athena reading (relative luminescence units) (AtheNA, Ab 50 ug/ml): 207; Athena reading (relative luminescence units) (Sm (Smith antigen) [19]): 165; Athena reading (relative luminescence units) (SSA [20]): 224; Athena reading (relative luminescence units) (Histones [21]): 193; Athena reading (relative luminescence units) (Jo-1 [22]): 72; Athena reading (relative luminescence units) (RNP (ribonucleoprotein) [23]): 69; Athena reading (relative luminescence units) (Scl-70 [26]): 62; Athena reading (relative luminescence units) (Centromere B [24]): 129; Athena reading (relative luminescence units) (AtheNA, Ab 25 ug/ml): 175 | B2 |
